In article PMC10746525 (2023):
Several values for one entry are separate records, joined by “and”; a condition that tells them apart may be missing. Equal values may be shown once. Read-outs that look alike come from different tables or passages of the source. Each block holds one binder with its values, some of them ahead of it.

B2: MBP-TRAK1_(342-431) (domain or fragment)
chain: EAQEELKNLRNKTMPNTTSRRYHSLGLFPMDSLAAEIEGTMRKELQLEEAESPDITHQKRVFETVRNINQVVKQRSLTPSPMNIPGSNQS
B3: MIRO1_(177-591) (domain or fragment)
chain: EEKEMKPACIKALTRIFKISDQDNDGTLNDAELNFFQRICFNTPLAPQALEDVKNVVRKHISDGVADSGLTLKGFLFLHTLFIQRGRHETTWTVLRRFGYDDDLDLTPEYLFPLLKIPPDCTTELNHHAYLFLQSTFDKHDLDRDCALSPDELKDLFKVFPYIPWGPDVNNTVCTNERGWITYQGFLSQWTLTTYLDVQRCLEYLGYLGYSILTEQESQASAVTVTRDKKIDLQKKQTQRNVFRCNVIGVKNCGKSGVLQALLGRNLMRQKKIREDHKSYYAINTVYVYGQEKYLLLHDISESEFLTEAEIICDVVCLVYDVSNPKSFEYCARIFKQHFMDSRIPCLIVAAKSDLHEVKQEYSISPTDFCRKHKMPPPQAFTCNTADAPSKDIFVKLTTMAMYPHVTQADLKSST

Key:
[1] = target: B3; experiment: ITC
[2] = target: B3; experiment: ITC; remark: listed apart in the source
[3] = target: T1, MIRO1_(177-591) E328A (human, UniProt Q8IXI2 177-591, E328A); experiment: ITC; 5 mM EGTA
[4] = target: T2, MIRO1_(177-591) E208A (human, UniProt Q8IXI2 177-591, E208A); experiment: ITC; 5 mM EGTA
[5] = target: T1, MIRO1_(177-591) E328A; experiment: ITC; 5 mM EGTA, 1 mM MgCl2, 0.1 uM GTP; experiment 1
[6] = target: T2, MIRO1_(177-591) E208A; experiment: as above
[7] = target: B3; experiment: ITC; remark: listed apart in the source
[8] = target: T1, MIRO1_(177-591) E328A; experiment: ITC; 5 mM EGTA, 1 mM MgCl2, 0.1 uM GTP; experiment 2
[9] = target: T2, MIRO1_(177-591) E208A; experiment: as above
[10] = target: T1, MIRO1_(177-591) E328A; experiment: ITC; 5 mM EGTA, 1 mM MgCl2, 0.1 uM GTP; experiment 3
[11] = target: T2, MIRO1_(177-591) E208A; experiment: as above
[12] = target: T3, MBP-TRAK1_(342-431) ^400KR^401 to AA (human, UniProt Q9UPV9 342-431, ^400KR^401 to AA); experiment: ITC; 5 mM EGTA, 1 mM MgCl2, 0.1 uM GTP; reverse titration, experiment 2
T3 sequence: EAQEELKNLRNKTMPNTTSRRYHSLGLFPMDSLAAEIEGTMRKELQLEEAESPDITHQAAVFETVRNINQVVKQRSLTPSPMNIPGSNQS

[13] = target: T4, GCN4-TRAK1_(342-431) ( | human, UniProt Q9UPV9 342-431); experiment: ITC
T4 chain: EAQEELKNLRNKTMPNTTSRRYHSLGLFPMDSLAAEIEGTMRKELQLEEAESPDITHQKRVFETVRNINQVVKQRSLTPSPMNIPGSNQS

[14] = target: B2; experiment: ITC
[15] = target: T3, MBP-TRAK1_(342-431) ^400KR^401 to AA; experiment: ITC; 5 mM EGTA, 1 mM MgCl2, 0.1 uM GTP; reverse titration, experiment 3
[16] = target: T3, MBP-TRAK1_(342-431) ^400KR^401 to AA; experiment: ITC; 5 mM EGTA; MIRO1 in syringe
[17] = target: T3, MBP-TRAK1_(342-431) ^400KR^401 to AA; experiment: ITC; 5 mM EGTA, 1 mM MgCl2, 0.1 uM GTP; experiment 1
[18] = target: T3, MBP-TRAK1_(342-431) ^400KR^401 to AA; experiment: ITC; 5 mM EGTA, 1 mM MgCl2, 0.1 uM GTP; reverse titration, experiment 1
[19] = target: T3, MBP-TRAK1_(342-431) ^400KR^401 to AA; experiment: ITC; 5 mM EGTA, 1 mM MgCl2, 0.1 uM GTP; experiment 2
[20] = target: T3, MBP-TRAK1_(342-431) ^400KR^401 to AA; experiment: ITC; 5 mM EGTA; TRAK1 in syringe
[21] = target: T3, MBP-TRAK1_(342-431) ^400KR^401 to AA; experiment: ITC; 5 mM EGTA, 1 mM MgCl2, 0.1 uM GTP; experiment 3

- Kd [1]: 4.39 µM
- Kd [2]: 9.62 µM and 6.1 µM and 5.65 µM
B1: TRAK1_(394-434) (peptide)
peptide: PDITHQKRVFETVRNINQVVKQRSLTPSPMNIPGSNQSSAM

Binder: B2
- Kd [3]: 10.1 µM
- Kd [4]: 9.09 µM
- Kd [5]: 9.17 µM
- Kd [6]: 8.85 µM
- Kd [7]: 10.6 µM
- Kd [8]: 10.1 µM
- Kd [9]: 9.09 µM
- Kd [10]: 10.3 µM
- Kd [11]: 3.86 µM

Binder: B3
- Kd [12]: 11.3 µM
- Kd [13]: 3.52 µM and 9.35 µM
- Kd [14]: 5.95 µM and 6.02 µM and 8 µM and 5.38 µM
- Kd [15]: 8.55 µM
- Kd [16]: 7.52 µM
- Kd [17]: 4.39 µM
- Kd [18]: 7.52 µM
- Kd [19]: 2.98 µM
- Kd [20]: 9.62 µM
- Kd [21]: 3.98 µM
